We go through 1 substance from paper PMC7286605.

In assay [1] the target is water-soluble variant of the μ-opioid receptor (wsMOR) (UniProt P35372). Briefly: MoS2 field-effect transistor biosensor.
The target is the same in assay [2]. Briefly: photonic crystal Fano resonance shift.

pEC50, pKd: −log10 of the molar value. Several values for one entry are separate records, joined by “and”; a condition that tells them apart may be missing. Equal values may be shown once.

In the case of “DAMGO ([D-Ala2, N-MePhe4, Gly-ol]-enkephalin) (peptide)”, in assay [1], the pEC50 is 8.92 and 8.82; the pKd is 8.44. In assay [2], the pEC50 was 9.00 and 8.92; the pKd was 8.60.
